These results are taken from patent US20230045791A1 (published 2023).

Like-named read-outs stand apart in the source and are kept apart here.

Test [1] concerns the target T1, rhesus monkey TNFR2 expressed on CHO cells (CHO.mkHFB3) (rhesus monkey, UniProt F7GUU0 22-457).
T1 chain: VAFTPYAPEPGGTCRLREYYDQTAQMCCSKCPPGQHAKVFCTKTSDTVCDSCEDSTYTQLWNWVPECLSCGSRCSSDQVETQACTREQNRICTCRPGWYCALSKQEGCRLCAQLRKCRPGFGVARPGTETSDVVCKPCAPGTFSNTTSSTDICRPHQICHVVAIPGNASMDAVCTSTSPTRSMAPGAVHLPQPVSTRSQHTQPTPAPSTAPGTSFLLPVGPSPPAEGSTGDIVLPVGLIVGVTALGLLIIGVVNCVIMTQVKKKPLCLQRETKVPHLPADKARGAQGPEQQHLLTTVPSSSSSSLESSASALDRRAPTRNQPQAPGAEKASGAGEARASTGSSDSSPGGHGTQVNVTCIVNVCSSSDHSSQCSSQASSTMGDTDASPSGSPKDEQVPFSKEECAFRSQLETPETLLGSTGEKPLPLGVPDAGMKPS
Put plainly: FACS cell binding.

The target in test [2] is T2, His-tagged recombinant human TNFR2 (human, UniProt P20333 23-257).
T2 chain: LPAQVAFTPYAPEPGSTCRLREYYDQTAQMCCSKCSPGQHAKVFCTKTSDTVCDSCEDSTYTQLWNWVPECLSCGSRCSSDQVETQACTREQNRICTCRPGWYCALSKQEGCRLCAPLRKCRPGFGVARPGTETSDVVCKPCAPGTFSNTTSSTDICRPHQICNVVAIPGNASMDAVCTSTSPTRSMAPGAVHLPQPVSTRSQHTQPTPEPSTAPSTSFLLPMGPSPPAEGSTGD
The test can be described thus: Octet BLI.

Test [3] deals with T3, human TNFR2 expressed on cells (CHO.hHFB3 / CHO.hTNFR2 cells; primary human T cells) (human, UniProt P20333 23-461).
T3 chain: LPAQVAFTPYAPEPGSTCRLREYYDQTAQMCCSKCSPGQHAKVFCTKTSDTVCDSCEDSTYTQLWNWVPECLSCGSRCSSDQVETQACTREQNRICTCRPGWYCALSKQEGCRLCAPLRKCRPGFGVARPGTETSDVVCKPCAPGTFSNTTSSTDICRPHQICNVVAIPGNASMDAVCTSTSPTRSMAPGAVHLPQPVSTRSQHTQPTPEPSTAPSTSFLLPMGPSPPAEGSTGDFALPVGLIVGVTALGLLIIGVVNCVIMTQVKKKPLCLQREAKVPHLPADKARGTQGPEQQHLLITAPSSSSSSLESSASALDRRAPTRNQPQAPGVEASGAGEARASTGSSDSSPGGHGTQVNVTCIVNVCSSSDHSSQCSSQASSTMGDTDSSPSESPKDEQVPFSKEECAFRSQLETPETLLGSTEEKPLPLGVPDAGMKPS
The test can be described thus: FACS cell binding; IgG1AA format.

The target of test [4] is T3, human TNFR2 expressed on cells …. The test can be described thus: FACS cell binding.
Test [5] deals with T2, His-tagged recombinant human TNFR2. Put plainly: ELISA.
Test [6] concerns the target T1, rhesus monkey TNFR2 expressed on CHO …. Put plainly: FACS cell binding.
Test [7] has as its target T3, human TNFR2 expressed on cells …. The test can be described thus: FACS cell binding.
Test [8] concerns the target T2, His-tagged recombinant human TNFR2. The test can be described thus: BLI (AHC biosensor).
Test [9] has as its target T3, human TNFR2 expressed on cells …. Put plainly: FACS cell binding; IgG1AA format.
For test [10], the target named is T1, rhesus monkey TNFR2 expressed on CHO …. The test can be described thus: FACS cell binding.

B1: HFB3-14hz1c-hG1 (humanized monoclonal antibody) (antibody, V domains shown)
VH: QVQLVQSGAEVKKPGSSVKVSCKASGYTFTDYYMNWVRQAPGQGLEWMGDINPNDGGTTYAQKFQGRVTITADESTSTAYMELSSLRSEDTAVYFCAREGNYYAYDVRVWYFDVWGQGTTVTVSS
VL: DIQMTQSPSSLSASVGDRVTITCGASQDIITYLNWYQQKPGKAVKLLIYSTSSLNSGVPSRFSGSGSGTDFTLTISSLQPEDFATYYCQQYSELPYTFGGGTKVELKR
On to B1, for which the results for the EC50 in [1], in test [3] and in test [4] were 0.7 nM, 2.9 nM and 1.77 nM, respectively. The equilibrium dissociation constant (Kd) in test [2] worked out at 2.8 nM.

B2: HFB3-18-hG1 (mouse monoclonal antibody) (antibody, V domains shown)
VH: EVKLEESGGGLVQPGGSMKLSCAASGFTFSDAWMDWVRQSPEKGLEWVAEVRNKANNHATYYAESVKGRFTISRDDSKSSVYLQMNSLRAEDTGIYYCTRSVGGYGTTYWYFDVWGTGTTVTVSS
VL: DIVMTQSPSSLSVSAGEKVTMSCKSSQNLLNSGNQKNYLAWYQQKPGQPPKLLIFGASTRESGVPDRFTGSGSGTDFTLTISSVQAEDLAVYYCQSEHSYPYTFGGGTKLEIKR
With B2, the concentration giving a half-maximal response (EC50) in test [5] is 49.8 nM; in test [6] it was 4.85 nM; in test [7], 4.17 nM. Further, the equilibrium dissociation constant (Kd) in test [8] came out at 4.2 nM.

B3: HFB3-1-hG1 (mouse monoclonal antibody) (antibody, V domains shown)
VH: EFQLQQSGPELVKPGASVKISCKASSYSFTDYNMNWVKQSNGKSLEWIGIIFPKYGTTSYNQKFKGKATLTVDQSSSTAYMQLNSLTSEDSAVYYCATDGGTWYFDVWGTGTTVTVSS
VL: QIVLTQSPALMSASPGEKVTMTCSASSSVTYMYWYQQKPRSSPKPWIYLTSNLASGVPARFSGSGSGTSYSLTISSMEAEDAATYYCQQWSSNPPTFGSGTKLEIKR
For the molecule B3, the EC50 in [5] was determined as 0.06 nM; in [9] it was 0.905 nM; in [6], 0.6 nM; in test [7], 0.48 nM; in [10], 5.37 nM. The dissociation constant (Kd) was 6.3 nM in test [2] and 1.4 nM in [8].

B4: HFB3-1hz6-hG1 (humanized monoclonal antibody) (antibody, V domains shown)
VH: QVQLVQSGAELKKPGASVKVSCKASSYSFTDYNMNWVRQAPGQSLEWMGIIFPKYGTTSYAQKLQGRVTLTTDTSTSTAYMELRSLRSDDTAVYYCATDGGTWYFDVWGTGTTVTVSS
VL: DIQLTQSPSFLSASVGDRVTITCRASSSVTYMYWYQQKPGKAPKPWIYLTSNLASGVPSRFSGSGSGTEYTLTISSLQPEDAATYYCQQWSSNPPTFGSGTKLEIKR
Consider B4, for which the values for the EC50 in test [9] and in [10] were 4.07 nM and 19.1 nM, respectively. Also, the Kd in [2] is 15.2 nM.

B5: HFB3-14-hG1 (mouse monoclonal antibody) (antibody, V domains shown)
VH: EVQLQQSGPELVKPGASVRISCKASGYTFTDYYMNWVKQSHGKSLEWIGDINPNDGGTTYSQKFKGKATLTVDKSSSTAYMELRSLTSEDSAVYFCAREGNYYAYDVRVWYFDVWGTGTTVTVSS
VL: DIQMTQSPASLSVSVGETVTITCRSSENIYSNLAWYQQKQGKSPQLLVYAATNLADGVPSRFSGSGSGTQYSLKINSLQSEDFGSYYCQHFWGTPWTFGGGTKLEIKR
As for B5, the EC50 was 2.15 nM in test [1] and 2.13 nM in [6].
